Results published in publication PMC3295773.

What was measured:
[1] = target: complexin 2 (pig (endogenous in boar sperm)); test: SDS-resistant complexes on SDS-PAGE, Western blot (bands of the same size); membrane cavitates of bicarbonate-capacitated boar sperm pre-incubated with 0-4 mM CaCl2 and 5 uM Ca2+ ionophore at 37 C for 20 min; non-reducing conditions; blot for complexin 1/2; most complexin left the 95 kDa complex as Ca2+ rose
[2] = target: complexin 2 (pig (endogenous in boar sperm)); test: SDS-resistant complexes on SDS-PAGE, Western blot (bands of the same size); boar sperm incubated with bicarbonate (with or without Ca2+ ionophore), lysed in 1% Triton X-100 on ice, sucrose gradient fractions 1-13; non-reducing SDS-PAGE; blots for complexin 1/2, syntaxin 3, SNAP 23, VAMP 2, syntaxin 1B, VAMP 3
[3] = target: complexin 2 (pig (endogenous in boar sperm)); test: SDS-resistant complexes on SDS-PAGE, Western blot (bands of the same size); whole sperm lysate, remaining head fraction and mixed vesicles of boar sperm treated with bicarbonate and 5 uM Ca2+ ionophore A23187; 35 ug crude protein a lane; non-reducing (RT, no reducing agent) or reducing (100 C, 10 min, 0.1 M DTT) conditions

stoichiometry N [1]: 2 | stoichiometry N [2]: 2 | stoichiometry N [3]: 2
Substance: complexin 2 (natural protein)
